Substitutions are numbered along the chain they refer to. Names and notes keep the numbering of the source.
B1: mouse pyridoxal kinase (mPDXK), wild type (enzyme, UniProt Q8K183 1-312, looked up)
chain: MEGECRVLSIQSHVVRGYVGNRAAMFPLQVLGFEVDAVNSVQFSNHTGYAHWKGQVLKSQELHELYEGLKVNDVNKYDYVLTGYTRDKSFLAMVVDIVRELKQQNSRLVYVCDPVMGDKWNGEGSMYVPQDLLPVYRDKVVPVADIITPNQFEAELLSGRKIHSQEEAFEVMDMLHCMGPDTVVITSSDLPSSQGSDYLIALGSQRMRKPDGSTVTQRIRMEMRKVEAVFVGTGDLFAAMLLAWTHKHPDNLKVACEKTVSAMQHVLQRTIRCAKAEAGEGQKPSPAQLELRMVQSKRDIEDPEIVVQATVL
B2: mouse pyridoxal kinase (mPDXK) F43R (enzyme, UniProt Q8K183 1-312, looked up)
chain: B1 chain with F43R
B3: mouse pyridoxal kinase (mPDXK) V41W/F43R double mutant (enzyme, UniProt Q8K183 1-312, looked up)
chain: B1 chain with V41W, F43R
B4: mouse pyridoxal kinase (mPDXK) R86W (enzyme, UniProt Q8K183 1-312, looked up)
chain: B1 chain with R86W
B5: mouse pyridoxal kinase (mPDXK) V41W (enzyme, UniProt Q8K183 1-312, looked up)
chain: B1 chain with V41W

Molecular target: the molecule itself
Test: SEC-MALS

Protein | stoichiometry N
B1 | 2
B2 | 2
B3 | 2
B4 | 2
B5 | 2
